Experimental findings from article PMC9600919 are described below.

The assay concerns the target N-terminally 3× FLAG-tagged IglD from Francisella novicida (Francisella novicida) (UniProt Q7X3J2). Description: cryo-EM structure.

Regarding “N-terminally 3× FLAG-tagged IglD from Francisella novicida (from UniProt Q7X3J2 1-398) (natural protein)”, the stoichiometry N is 3.
